Measurements: the supplement of paper PMC12042874
± gives the uncertainty stated by the source.

Assay: amyloid nucleation score (Sup35N fusion, yeast selection) (log enrichment); library NNK2; higher = more nucleation; inactive = no reads after selection
How it was run: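 Three technical output replicates were used for random libraries. Psi-negative yeast expressing peptides of 20 random codons fused to Sup35N were induced with 100 μM copper sulfate for 24 hours and grown 7 days at 30°C on medium lacking adenine and uracil, and input and output plasmid inserts were Illumina-sequenced, excluding sequences with under 100 input reads. The nucleation score is the DiMSum log enrichment of output over input reads, centred on the mode score of non-aggregating sequences.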

Substance | amyloid nucleation score
CLVYVGRVPSRIGDHRITAY | 0.966 ± 0.38
CMEETMVSSLKLLTRPMTSR | 0.052 ± 0.29
CMFKQYYYCARAYSVSWTVM | -0.013 ± 0.56
CMGDNVIC | -0.954 ± 0.37
CMLMYVYMIDWRPINFMFF | 5.301 ± 0.041
CMNGPFTLTRPTARGRIRC | 0.32 ± 0.51
CMSNTMCAFVDGYNMHYLVD | inactive
CMYNRLLLLGALFVTPQWVR | 0.079 ± 0.5
CNFHCPI | 2.63 ± 0.17
CNFVTILLGMN | 4.85 ± 0.055
CNIRAYDIISTLMHFVLCH | -1.67 ± 0.55
CNLSFVGS | 0.287 ± 0.25
CNNQRYVNNGITRNGRNDAG | -0.604 ± 0.76
CNRAQLNVSPNLDDMRKFGV | -0.506 ± 1
CNRGLKFAVGFKLLTIPTSL | inactive
CNVSSWSFLPPS | inactive
CNYMSVWN | -0.021 ± 0.74
CPLFYMSMISGFEGIFSLHK | inactive
CPLNLPTLGRLATEKRAWG | -0.177 ± 0.79
CQGHQWSYRPVP | 0.684 ± 0.35
CQRTLQTGAYRDGLCIYGLS | 1.38 ± 0.41
CRHYKFV | -0.097 ± 1.1
CRMFSEHSYRRSSLSVPGMN | inactive
CRNLPGVCEMPSGVANYRVL | -0.547 ± 1.1
CRSAVRRILGFNLSRVFSWF | -0.417 ± 0.64

Substance | amyloid nucleation score
CRSNQNESLNGC | 0.436 ± 0.21
CRSRT | 0.978 ± 0.28
CRSSGFRFTLRKWCWNVNEC | -0.7 ± 0.76
CRSWTHKSHIPVKLSNDTMS | -0.106 ± 0.63
CSCMKFWKFLLIRQSYKPGM | 2.16 ± 0.18
CSEVQNLFNM | inactive
CSFCRPFVTCILIRSKVCGW | 1.21 ± 0.11
CSFLYIGLVIPSFEYDHALL | 4.171 ± 0.041
CSFRAFLWCILGGGENFNSS | 2.91 ± 0.065
CSGYSERAPRFCSDLIVCST | 0.574 ± 0.51
CSMFSKLMVNSGLSSVLTVM | 0.047 ± 0.28
CSNSFLI | -0.868 ± 1.1
CSVVTNGLLNMSSFPHVFCM | 1.79 ± 0.11
CSWVRSLYNGIVLKKH | -0.652 ± 0.45
CTCFVLSGSVV | 2.4 ± 0.13
CTCLWNDMRRGP | 1.99 ± 0.25
CTCTDTEDKWVKSGYSRGAH | 2.22 ± 0.079
CTEFSLTDCSSG | inactive
CTFHFVSGHTTTGSR | 1 ± 0.66
CTFLRNIGFLYWYVSPLNLG | inactive
CTQVMTERV | -0.091 ± 0.32
CTSMGA | -0.291 ± 0.79
CTSVGFTYHRDFWYMGFWSR | 0.919 ± 0.15
CTVFCLQRSFGHYSLMMLIN | 2.22 ± 0.12
CVAWKR | 0.554 ± 0.48

Substance | amyloid nucleation score
CVCDLCVPWVLNFGR | 8.914 ± 0.051
CVCSVYAGNFCLIVLVWLMV | 0.433 ± 0.74
CVCYDLYELLAITQLHLWSF | -0.344 ± 0.48
CVDTSFCLYARELILCAR | -0.121 ± 0.5
CVDVDIKMLPGFCRCNIPLC | -1.34 ± 1.1
CVFVPIKLGGDGLTVYLKCI | -0.996 ± 0.45
CVHLLSVSGWDFQYYFQAFN | 1.17 ± 0.13
CVIGCSGWKRIFIISILYRV | -0.562 ± 1
CVKVNWVSV | -0.81 ± 0.76
CVMSFYPELIILASSFCVPF | -1.22 ± 0.36
CVTQSR | -0.086 ± 0.26
CVVKDSSTVFM | -1.9 ± 1
CVVQHSRSFVRPLLSTLQAC | 0.453 ± 0.23
CVWGWNRSYTYYYGDAIGHC | inactive
CWARMWGYSKCHSRVFSYMS | -1.1 ± 0.55
CWDRFTYEYLSFYSLISRV | inactive
CWFPWSSYLRNMFELPKTWL | 0.529 ± 0.55
CWQVYLIFMGRMVCLTVML | 1.15 ± 0.66
CYAPKYGRHWP | 0.708 ± 0.49
CYFSGSVSRTSVRLVLLSNG | -0.573 ± 1.1
CYGLYPEDLLCMYGKLDLPR | 0.229 ± 0.61
CYINKVRCMMHLWDHDDTWG | 0.734 ± 0.81
CYLVYFSYKLHQI | -1.43 ± 1.1
CYSLSYLILVCR | 5.73 ± 0.041
CYTDTMARK | 4.15 ± 0.047

Substance | amyloid nucleation score
CYVDFSYLVNKFYWGPRWMP | -0.049 ± 0.5
CYVRI | -0.603 ± 1.1
CYVVAREKSLIETGNFGKYG | -0.653 ± 0.79
CYYVDIVVSHQRTTSVMVGD | 0.698 ± 0.29
DACWFMIGHIGFC | inactive
DAITCGVHFAKDLNWVYIEV | inactive
DAMSMCP | 7.398 ± 0.061
DCFTRYGCAGKYRVGAQGSS | 1.47 ± 0.47
DCHEGRTNPRALKCFTEERG | 0.173 ± 1.1
DCLICFKDICNFENNEMIGA | -0.556 ± 0.2
DCLRCNHYTVCNMYDRFFLL | inactive
DCPLFQRLYRQS | -0.211 ± 0.22
DCSDLVSLLCNVRHAHGRWL | 4.42 ± 0.067
DCSNDRKIYYNWAIRVVRTD | 0.076 ± 0.35
DDVSHPHLKCIVWD | inactive
DEGVPSGYVTAL | -0.354 ± 0.76
DEKIYLVSG | 0.472 ± 0.66
DEPLWKLKFKFEWFIRTLVI | -1.37 ± 0.76
DFAGSKDDWTSQMMGVLDGL | -0.689 ± 0.44
DFESGWFSVDFVN | -0.853 ± 0.55
DFGKIGEWDWAGGVYLSAWR | -0.137 ± 1.1
DFGVWFFFYTHQLSA | -0.113 ± 1.1
DFISCVLFSLFFRTLSRKGH | -0.679 ± 0.64
DFMFFVYPSNSMLKGISRGR | -1.77 ± 0.48
DFNLWPLC | -0.373 ± 1.1

Substance | amyloid nucleation score
DFVHVEIDPYQVGGGFQ | 8.764 ± 0.046
DFYSNEWRGDEICVQLLELV | 0.393 ± 0.66
DFYSNYILLRSSP | -1.84 ± 1
DGFMLMFFTITIRFPNALQV | inactive
DGFSFIVRSFVWRNNHADAG | 3.71 ± 0.12
DGFVGALDGVISSCWNTLRG | -0.701 ± 0.63
DGSHLSKTDVK | 0.113 ± 0.2
DGVRGLYKRLRMCTTCLCTL | 6.48 ± 0.079
DGVSCSRVNAVVYARLSQMG | 1.3 ± 0.23
DHADWNAYHISTEV | 3.25 ± 0.05
DHLNV | -0.401 ± 0.63
DIFCLRPYKLPGYTFYYFVY | inactive
DINSQEVCSVTELGR | -0.247 ± 0.45
DITTEVKGSLLVMLSGDNAG | 0.807 ± 0.31
DIYPRLLEDVFYPFVQPHLF | -0.505 ± 1.1
DKMYVIIVGPLAAMENVNNT | 0.024 ± 0.48
DKSFVSLSRFHSGRLEIRVM | -0.886 ± 0.49
DKYAGCNSDDINWMKDRVSG | 0.029 ± 0.5
DLAFFMLHYLHIRRCKDYPR | inactive
DLCQSHLPCHMRRTSFRQLP | 0.606 ± 0.36
DLHPGNSNAD | -0.146 ± 0.54
DLKVDQSVWRSLDMNALVAN | 1.27 ± 0.44
DLNYFSTMGEVLYMFSVLTY | -0.08 ± 1
DLRRSKSFDDTNEHWHSGFR | -0.607 ± 0.64
DLSHNVNVCICFCWAMRYDA | 8.342 ± 0.045

Substance | amyloid nucleation score
DLSRLCVGHAVI | 0.446 ± 0.18
DLSVLDLGVLFINRFTRTLE | inactive
DLTCSC | 0.804 ± 0.3
DLYNCMHWQHVEYIMLLHGL | -0.846 ± 0.35
DLYQALSISV | -0.308 ± 0.39
DMGGPTTIY | 0.798 ± 0.67
DMLPVRVVAHWCVVARCTRV | 0.965 ± 0.2
DMLVCNGLFVFRASKGTIDA | -0.837 ± 1.1
DMLVDYSIKDDRVYKVRLPM | -1.61 ± 0.62
DMVCRY | -0.272 ± 0.36
DNCFAAFSFRRGVAYVDL | -0.52 ± 0.38
DNDMG | -0.267 ± 0.25
DNDYTWIKFLKCGRADASGT | 0.157 ± 0.5
DNFFIMALHSSREVDMKNRS | -1.53 ± 1
DNKWILDRLIQHSLDHKVCR | -0.332 ± 0.63
DNMDFMMCKINSGLNLTLSS | -2.33 ± 0.62
DNVMLYKRKKQRPIMVPWSA | -0.488 ± 0.35
DPLPMSYRVYSARSW | -0.81 ± 1
DPNLGLSTW | 0.47 ± 0.34
DPNLPETVTGVIMFASVGGA | -0.13 ± 0.76
DPSGYHVSFHSGDGGCEYC | 2.71 ± 0.085
DQAHRGSCDVS | 0.214 ± 0.63
DQKTMTTVL | 0.368 ± 0.45
DRAVRQFIFLVYGSSLDWDI | 0.044 ± 0.79
DREFLGDCWVLAELSKTRLI | 3.24 ± 0.093

Substance | amyloid nucleation score
DRFTAGLIFCMLCLGRYVCM | inactive
DRGYVTD | 1.14 ± 0.4
DRICRVDIYDVRDQSYTFSG | -0.279 ± 0.29
DRRGQQVLGPACRGCWFWPD | 0.305 ± 1
DRRWHRALQN | 0.137 ± 0.37
DRWMTGMDAVYLHRRGPLFF | 0.13 ± 0.8
DRYSTCSNRKSTRYLFMTFA | 0.151 ± 0.36
DSAGASFNSCCGAE | 0.122 ± 1.1
DSCGLCRYGGEMFRKFKFIS | inactive
DSDNIPNHTYMILFGIQFHS | -0.311 ± 0.65
DSFFAEMDNLNSGRTPFKGT | inactive
DSISFNPYRMLRDNYLLHVC | 1.9 ± 0.13
DSISNISDPCGFLGQESWVN | 4.83 ± 0.063
DSNRMNVNRTPDGVLGGCGT | 0.468 ± 0.38
DSSLKLGNTETFIDRSMLCN | -0.407 ± 0.4
DSSRRM | -1.43 ± 0.78
DSSYVSVHRFCNFGYLIFCF | 7.734 ± 0.064
DSTFKYYRTYLKERR | -0.357 ± 0.41
DSVSTVVFII | 4.47 ± 0.045
DSWFEQCVVFWLKTNCPQQE | -0.069 ± 0.25
DTDDVNHYSFTPRALSSGFI | inactive
